In patent publication US11254722B2, “Recombinant proteins and uses thereof” (ACADEMIA SINICA, priority 2017, dated 2022):
Like-named read-outs stand apart in the source and are kept apart here.

Legend:
[1] = estimated; reference 26; cited from earlier work
[2] = test system: hep3B cells; assay: hep3B proliferation assay; type: cell-based, human; conditions: for EC50: FIG. 11C, read-out: ECK for FBS-induced proliferation; for IC50: Table 10
Outline: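 Cells seeded at 1,000 to 6,000 per well in DMEM/F12 with 0.2% BSA and 10 ug/ml transferrin. Inhibitors added 16-20 h after plating; IGF-1 or other growth factors at plating or 16-20 h later. After 3 to 4 days, growth read by Alamar blue fluorescence at 544/590 nm after 4 to 6 h.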

[3] = biological target: T1, IGF-1 (Homo sapiens, UniProt P05019); assay: Biacore binding to IGF-1; conditions: experiment 4-79
T1 construct: purchased R&D Sciences or SinoBiologicals
T1 sequence (P05019 49-118 limits assumed): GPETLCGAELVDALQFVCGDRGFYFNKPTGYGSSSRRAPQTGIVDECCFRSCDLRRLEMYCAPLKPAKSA
Method: Biacore binding was performed at David Myszka's laboratory at the University of Utah or at the Genomic Research Center at Academia Sinica. Surfaces of binding protein chimera were made via chemical immobilization on a CM4 chip using standard amine coupling chemistry. […] Excess surface carboxyl activated sites on all four flow cells was blocked using the doubly positively charged species ethylenediamine. Binding experiments (but not immobilizations) in HBS-P (10 mM HEPES pH 7.4, 150 mM NaCl, 0.05% P20), The HBS-P was supplemented with BSA at 0.2 mg/mL, or HBS-P was supplemented with 500 mM NaCl (650 mM NaCl, final concentration). Analytes were also reconstituted in the corresponding buffer. All experiments were performed at 25° C. 1/150 dilutions of phosphoric acid were used to regenerate IGFBP3-Fc surfaces and a sequence of 3 M MgCl2 followed by 5 M GuCl was used to regenerate surfaces immobilized with growth factor. Dissociation constants reported below used immobilized binding protein unless noted. Differences between binding constants may be expected between growth factor immobilization and chimera immobilization.

[4] = test system: A431; assay: A431 survival and growth with TKI; type: cell-based, human; conditions: FIG. 21
Method: (§1) MCF-7 cells (a breast cancer cell line) were maintained in MEM (GIBCO) plus insulin and NEAA and 10% FBS (Hyclone).
(§2) For the proliferation assay, cells except for HUVEC were seeded at a density of 1,000 to 6,000 in 96 wells in an assay buffer of DMEM/F12 plus 0.2% BSA and 10 ug/ml transferrin. Chemical inhibitors were added after 16-20 hours after plating; IGF-1 or other growth factors or test chimeras in assay buffer were added at the time of plating or 16-20 hours after plating. 5,000 HUVEC ells were plated in poly-L-lysine coated 96 wells in M199 with 1%/FBS and HEPES. After 3 to 4 days of culture, growth was determined by incubating cells with Alamar blue for 4 to 6 hours and then the fluorescence (RFU) at 544/590 nm was read. For long term proliferation assays, cells were plated in the growth media with 5% or 10% FBS at densities of 500 to 10,000 cells per cm^2 growth area and grown for 7 to 21 days. Inhibitors and effectors were added 1-4 days after plating. Cells were exposed to cisplatin or gemcitabine for two days. Medium was renewed twice weekly. At completion, cells were fixed and then stained with Giemsa.
(§3) The addition of chimera D3 to gefitinib reduced this number by about 100-fold.

[5] = test system: PC-9 non-small cell lung cancer cells; assay: PC-9 subcutaneous tumors in NSG mice, daily erlotinib; type: in vivo; conditions: chimera D3 plus erlotinib
Method: (§4) 5×10exp6 PC-9 non-small cell lung cancer cells were injected subcutaneously in Nod scid gamma (NSG) mice. […] Erlotinib in 6% captisol was dosed orally daily at 25 mg/kg; IGFBP3Fc (3(del3)3) was dosed intraperitoneally at 25 mg/kg three times per week; control animals were administered vehicle. Dosing was started on day 11; erlotinib and erlotinib plus D3 was discontinued on day 19; D3 injections were discontinued on day 22.

[6] = test system: HT29 cells; assay: HT29 proliferation assay; type: cell-based, human
Method: as §1, §2
The combination of drug (erlotinib and vemurafenib in hep3b and HT29 cells, respectively) and chimera can be synergistic; so, in addition to enhancing the inhibition, the chimera addition may also lower drug concentration requirements and reduce side effects.

[7] = test system: PC-9 cells; assay: PC-9 proliferation and clonal density assays; type: cell-based, human
Method: as §1, §2
Proliferation assays at clonal densities allows measurement of these DTPs. PC-9 cells are a human non-small cell lung cancer line with a EGFR deletion with high sensitivity to EGFR TKI's (24).

[8] = test system: A549 lung carcinoma cells; assay: A549 proliferation assay; type: cell-based
Method: as §1, §2
Since the A549 cell line contains a KRAS mutation, it is expected that A549 cells be resistant to TKIs such as AZD9291 and erlotinib. MEK inhibitors such as trametinib were designed to target the RAS/MEK/ERK pathway. […]

[9] = test system: Hep3B cells; assay: Hep3B subcutaneous tumors in NOD-Scid mice; type: in vivo
Method: Hep3B cells were infected with GFP-luciferase lentivirus. The cells with highest GFP expression were selected by FACS sort, and the resulting population was expanded. Two million hep3B cells mixed with Matrigel were injected subcutaneously in NOD-Scid mice, and measurable signal was obtained after 7 days. Treatment began at 8 days after injection (day 0). Luciferase was measured as per the standard Xenogen protocol. IGFBP3.Fc D3 (i.e., the 3(del3)3 chimera) at 20 mg/kg was injected twice weekly; saline was injected in the control group. Tumor growth was measured twice weekly by measuring the luminescence. […]

[10] = test system: HUH7; assay: HUH7 survival and growth with TKI; type: cell-based, human; conditions: FIG. 21
Method: as §1, §2, §3

[11] = test system: PC-91R; assay: PC-91R gefitinib-resistant cell proliferation; type: cell-based; conditions: FIG. 24A, FIG. 24B
Method: as §2
One mechanism of EGFR TKI resistance is the transition from an epithelial to mesenchymal phenotype (16). […] Consequently, a combination of chimera D3 and TKI may limit the resistance caused by epithelial to mesenchymal transition.

[12] = test system: PC-9 tumors; assay: PC-9 subcutaneous tumors in mice, low dose erlotinib; type: in vivo; conditions: erlotinib 25 mg/kg 3 times per week; FIG. 27
Method: as §4
Subcutaneous PC-9 tumors were generated and measured as above. Chimera D3 was dosed as above; erlotinib was dosed at 25 mg/kg 3 times per week in order to examine the effect of the chimera D3 on the tumor growth with suboptimal erlotinib dosing. The treatment started on day 8 and ended on day 22.

[13] = test system: H1975-T790M gefitinib-resistant; assay: H1975 survival and growth with TKI; type: cell-based, human; conditions: FIG. 21
Method: as §1, §2, §3

[14] = number of tumors, increase in the tumor size
[15] = number of tumors, no measurable tumor
[16] = number of tumors, partial regression means a 20% or greater decrease in the tumor size

IGFBP3: insulin-like growth factor-binding protein-3, wild-type (SEQ ID NO: 1) [reference compound]
serum half-life [1]: 25 min | EC50 ([2]; hep3B): 200 nM | Kd [3]: 0.363 nM

B1: chimera D3: IGFBP3 with IGFBP3 linker deletion 3-Fc, SEQ ID NO: 12 (protein)
chain: MSEVPVARVWLVLLLLTVQVGVTAGGASSAGLGPVVRCEPCDARALAQCAPPPAVCAELVREPGCGCCLTCALSEGQPCGIYTERCGSGLRCQPSPDEARPLQALLDGRGLCVNASAVSRPAPPAPGNASESEEDRSAGSVESPSVSSTHRVSDPKFHPKGHAKVDYESQSTDTQNFSSESKRETEYGPCRREMEDTLNHLKFLNVLSPRGVHIPNCDKKGFYKKKQCRPSKGRKRGFCWCVDKYGQPLPGYTTKGKEDVHCYSMQSKVECPPCPAPPVAGPSVFLFPPKPKDQLMISRTPEVTCVVVDVSHEDPEVKFNWYVDGVEVHNAKTKPREEQYNSTYRVVSVLTVLHQDWLNGKEYKCKVSNKGLPSSIEKTISKAKGQPREPQVYTLPPSREEMTKNQVSLTCLVKGFYPSDIAVEWESNGQPENNYKTTPPVLDSDGSFFLYSKLTVDKSRWQQGNVFSCSVMHEGLHNHYTQKSLSLSPGK
hep3B proliferation on co-treatment with doxorubicin ([2]; 0.01 uM doxorubicin plus chimera D3): reduced proliferation even further | hep3B proliferation on co-treatment with erlotinib, sorafenib or afatinib ([2]; 2 uM erlotinib, 2 uM sorafenib, or 0.15 uM afatinib, FIG. 16B): further reduced cell proliferation | proliferation of hep3B cells treated with chimera alone vs no inhibitor ([2]; FIG. 16B): reduced significantly | IC50 ([2]; read-out: IC50, FBS-stimulated proliferation of hep3B cells): 105 nM | IC50 ([2]; read-out: IC50, HGF-stimulated proliferation of hep3B cells): 47 nM | IC50 ([2]; read-out: IC50, IGF1-stimulated proliferation of hep3B cells): 28 nM | IC50 ([2]; read-out: IC50, bFGF-stimulated proliferation of hep3B cells): 69 nM | IC50 ([2]; read-out: IC50, nrg-stimulated proliferation of hep3B cells): 78 nM | bFGF, IGF1, bFGF/IGF1, HGF and HGF/IGF rescue of erlotinib-treated hep3b cells ([2]; clonal proliferation assay, FIG. 22B): inhibited | inhibition of hep3B cells treated with erlotinib ([2]; combination with erlotinib, FIG. 15, FIG. 16A): synergistically inhibited | EC50 ([2]; hep3B): 85 nM | cancer cell survival and growth on addition to TKI ([2]; hep3B, FIG. 21): further inhibited | cancer cell survival and growth on addition to TKI [4]: further inhibited | tumor growth after erlotinib treatment was stopped on day 19, compared to the erlotinib group ([5]; FIG. 26): delayed tumor growth | tumor volume of treated to control (T/C) ([5]; day 20): 32% | inhibition with vemurafenib in HT29 cells ([6]; FIG. 17A isobologram, FIG. 17B): synergistic inhibition | cancer cell survival and growth on addition to TKI ([6]; HT29, FIG. 21): further inhibited | decrease of the IC50 of gefitinib ([7]; 200 nM D3Fc, PC-9, four-day assay, FIG. 19A): 70 fold | bFGF and HGF rescue of osimertinib-treated PC-9 cells ([7]; FIG. 23): inhibited such rescue | clonal density assay with gefitinib ([7]; PC-9, FIG. 19B): decreased the IC50 and reduced surviving cells | IGF1-induced cell survival under gefitinib ([7]; PC-9, FIG. 20): dramatically reduced | cell growth with bFGF under gefitinib ([7]; PC-9, FIG. 20): substantially reduced cell growth | cancer cell survival and growth on addition to TKI ([7]; PC-9, FIG. 21): further inhibited | reduction of the number of PC-9 cells surviving gefitinib ([7]; addition of chimera D3 to gefitinib): about 100 fold | A549 growth on addition to cisplatin ([8]; FIG. 18B): further inhibited | growth of A549 lung carcinoma cells ([8]; alone, or in combination with the TK (AZD9291, trametinib), FIG. 18A): reduced the growth | hep3B tumor growth compared with control mice ([9]; 20 mg/kg twice weekly, luminescence, FIG. 25): grew more slowly | T/C (tumor volume treated/control) ratio ([9]; D3 alone, day 25): 63% | tumor growth inhibition ([9]; D3 alone, day 25, p value of 0.0025): 37% | Progression, Day 12 [9, 14]: 5 | Progression, Day 22 [9, 14]: 4 | Complete regression, Day 12 [9, 15]: 2 | Complete regression, Day 22 [9, 15]: 3 | Partial regression, Day 12 [9, 16]: 1 | Partial regression, Day 22 [9, 16]: 1 | cancer cell survival and growth on addition to TKI [10]: further inhibited | sensitivity of gefitinib-resistant PC-91R cells to gefitinib [11]: restored the cancer cells' sensitivity to gefitinib | tumor inhibition on addition of chimera D3 to erlotinib [12]: clearly improved the tumor inhibition | cancer cell survival and growth on addition to TKI [13]: further inhibited
